Assays:
[1] = system: GST-wtMADD (bacterially expressed, purified)

Which “in vitro phosphorylation (32P autoradiography)” value (“in vitro phosphorylation” below) (GST-MADD173A (T173A)) does the source give for “recombinant Akt (rAkt; protein kinase B)” here?
The value was “The phosphorylation levels of MADD mutants including MADD70A, MADD173A and MADD1041A were reduced or absent”.

What about the “in vitro phosphorylation” value (GST-MADD1041A (T1041A)) of the same substance?
Its value is “The phosphorylation levels of MADD mutants including MADD70A, MADD173A and MADD1041A were reduced or absent”.

And the “in vitro phosphorylation” value [1]?
The value was “recombinant wild-type MADD (wtMADD) was phosphorylated by Akt”.

And the “in vitro phosphorylation” value (GST-MADD70A (S70A))?
Its value is “The phosphorylation levels of MADD mutants including MADD70A, MADD173A and MADD1041A were reduced or absent”.
